The source of these data is patent publication US11998620B2, “PSMA targeted compounds and uses thereof” (CASE WESTERN RESERVE UNIVERSITY, priority 2021, dated 2024).

For series [1], the system named is PSMA-expressing cancer tissue. The experiment in a line: Standard uptake values (SUVs) by PET and blood clearance, general statements. The class given is in vivo. The following applies: PET. The method, then: The term “standardized uptake value (SUV)” refers to a measure of radioactivity in a specific area of interest relative to an idealized even distribution of radioactive material throughout the body. SUV is used historically by nuclear medicine professionals to distinguish between “normal” and “abnormal” levels of uptake. Preferably, uptake is measured by positron emission tomography (PET) imaging or other imaging modalities.
The PSMA targeted compounds described herein include a PSMA ligand, e.g., PSMA-1, conjugated to a metal chelating agent or chelated metal nuclide. The PSMA targeted compounds described herein can selectively recognize PSMA-expressing tumors, cancer cells, and/or cancer neovasculature in vivo and be used to deliver at least one chelated metal nuclide, such as radionuclide, to the PSMA-expressing tumors, cancer cells, and/or cancer neovasculature to treat and/or detect the PSMA-expressing tumors, cancer cells, and/or cancer neovasculature in a subject. The PSMA ligand can target and/or increase the uptake of the metal chelating agent or chelated metal nuclide in PSMA expressing cancer cells compared to untargeted metal chelated agents or chelated metal nuclides administered to a subject and decrease non-PSMA target toxicity of the metal nuclide administered (e.g., systemically) to a subject.

The nature of series [2]: Storage stability (lyophilized powder; frozen in saline). The class given is physicochemical. The method, then:
(§1) PSMA-1-DOTA was incubated in 100% mouse Plasma, PBS, or 100% human plasma at 37° C. […] And stability has been monitored and confirmed for at least 7 days frozen in isotonic sterile saline.

Series [3] in a line: Stability assay: incubation in plasma or PBS, HPLC. The class given is in vitro ADME. As to conditions: 100% mouse plasma, PBS or 100% human plasma at 37° C., for 7 days. The method, then: as §1
Series [4] is described as follows: In vivo PET imaging in healthy animals without tumor. Further details: species or system mice. The method, then:
We compared the [^68Ga]-PSMA-11 and the [^68Ga]-PSMA-1-DOTA ligand in healthy animals without tumor. Equal doses of radioactivity were injected into the same animal (a single animal was used to limit variability). We injected the [^68Ga]-PSMA-1-DOTA first to prevent blockade of its binding by the other ligand, waited 24 hours and then injected the other radiolabeled ligand.

The target of the next series is T1, PSMA (Homo sapiens, UniProt Q04609).
T1 construct: expressed in transfected cells; host or cells: PC3pip cells
T1 sequence (Q04609 whole entry): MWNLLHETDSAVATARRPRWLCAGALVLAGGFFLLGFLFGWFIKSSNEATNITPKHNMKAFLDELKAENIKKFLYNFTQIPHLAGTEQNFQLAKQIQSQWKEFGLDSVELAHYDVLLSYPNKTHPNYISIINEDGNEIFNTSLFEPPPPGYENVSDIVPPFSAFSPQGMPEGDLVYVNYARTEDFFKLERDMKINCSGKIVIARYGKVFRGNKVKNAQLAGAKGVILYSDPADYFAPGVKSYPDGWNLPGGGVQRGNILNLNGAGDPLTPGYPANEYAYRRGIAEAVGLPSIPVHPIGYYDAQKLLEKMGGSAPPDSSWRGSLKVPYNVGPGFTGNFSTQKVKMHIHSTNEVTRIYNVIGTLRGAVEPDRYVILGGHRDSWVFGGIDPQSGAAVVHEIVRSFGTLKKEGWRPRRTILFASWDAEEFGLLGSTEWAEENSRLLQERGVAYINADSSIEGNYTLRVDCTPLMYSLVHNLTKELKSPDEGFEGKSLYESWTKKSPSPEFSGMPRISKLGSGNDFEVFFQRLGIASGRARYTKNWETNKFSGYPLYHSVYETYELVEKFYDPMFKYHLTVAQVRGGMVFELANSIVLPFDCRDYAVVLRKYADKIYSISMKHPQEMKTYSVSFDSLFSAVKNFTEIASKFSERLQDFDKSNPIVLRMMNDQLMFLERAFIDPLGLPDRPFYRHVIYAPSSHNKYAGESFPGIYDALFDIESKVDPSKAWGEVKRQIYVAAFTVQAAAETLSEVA
The experiment in a line: Competition binding assay using [3H]-ZJ24 with PC3pip cells. As to conditions: approximately, compared to PSMA-11, PSMA I&T and ZJ24 ligands, FIG. 3. From the text:
We first conjugated a macrocyclic DOTA to our PSMA-1 ligand enabling us to label it with [^68Ga]. We then compared the macrocyclic-conjugated PSMA-1 ligand to PSMA-11 ligand, PSMA I&T ligand, and ZJ24 ligand in a competitive radio-binding assay using [^3H]-ZJ24 with PC3pip cells. FIG. 3 illustrates that the PSMA-1 ligand conjugated to DOTA, the PSMA-1 ligand has approximately 4-5 fold higher affinity for PSMA.

For series [5], the system named is PC3pip tumors that overexpress PSMA. The experiment in a line: In vivo PET imaging in animals harboring PC3pip tumors. From the text: We also made a similar comparison using animals harboring PC3pip tumors that overexpress PSMA.
Where [6] appears, read: PC3pip tumor bearing animals, PET.

Numbered stars: 1 amine (or outer) side, 2 acyl side, 3 side chain; on linkers, the order of the positions; unused ones are H or OH. Square brackets hold non-standard residues; d marks the D form. Peptide text beside a SMILES is read from it. * marks the point of attachment. DOTA = O=C(O)CN1CCN(CC(=O)O)CCN(CC(=O)*)CCN(CC(=O)O)CC1; γGlu = O=C(O)[CH](CCC(=O)[*:2])N[*:1]; X3 = O=C(C1CCC(CN[*:1])CC1)[*:2]; CO = O=C([*:1])[*:2]; Ahx = NCCCCCC(=O)O

As for `NC(=O)C(CCCCNC(=O)CN1CCN(CC(=O)O)CCN(CC(=O)O)CCN(CC(=O)O)CC1)NC(=O)C(Cc1ccc(O)cc1)NC(=O)C(CCC(=O)O)NC(=O)C(CCC(=O)O)NC(=O)C(CCC(=O)O)NC(=O)CCCCCNC(=O)CCC(NC(=O)NC(CCC(=O)O)C(=O)O)C(=O)O` (stereo not shown) [JB-1498] ({Glu-CO-γGlu-Ahx}-EEEYK(DOTA)-NH2; configuration not given here), the “SUVs in salivary glands, lacrimal glands and non-PSMA expressing muscle tissue versus SUVs in PSMA-expressing cancer” value in series [1] was “substantially lower SUVs”.

Take `NC(=O)C(CCCCNC(=O)CN1CCN(CC(=O)O)CCN(CC(=O)O)CCN(CC(=O)O)CC1)NC(=O)C(CCC(=O)O)NC(=O)C(CCC(=O)O)NC(=O)C(CCC(=O)O)NC(=O)CCCCCNC(=O)C1CCC(CNC(=O)CCC(NC(=O)NC(CCC(=O)O)C(=O)O)C(=O)O)CC1` (stereo not shown) [PSMA-1-DOTA] ({Glu-CO-γGlu}-[X3][Ahx]EEEK(DOTA)-NH2; configuration not given here): the “stability frozen in isotonic sterile saline” value in series [2] (frozen) was “at least 7 days”. Also, the “stability as a lyophilized powder” value in series [2] (long term storage) is on record as “stability for long term storage”. Also, the “SUVs in salivary glands, lacrimal glands and non-PSMA expressing muscle tissue versus SUVs in PSMA-expressing cancer” value in series [1] is given as “substantially lower SUVs”. The “degradation/purity by HPLC” value in series [3] is recorded as “No decline in the product”. For the same compound, in series [4] (mouse, in vivo), the renal clearance result is on record as “faster renal clearance” and the “renal retention of the probe” value is “less renal retention”. Also, the “higher affinity for PSMA” value at PSMA was 4-5 fold.

Take `NC(=O)[C@H](CCCCNC(=O)CN1CCN(CC(=O)O)CCN(CC(=O)O)CCN(CC(=O)O)CC1)NC(=O)[C@@H](CCC(=O)O)NC(=O)[C@@H](CCC(=O)O)NC(=O)[C@@H](CCC(=O)O)NC(=O)CCCCCNC(=O)C1CCC(CNC(=O)CC[C@H](NC(=O)N[C@@H](CCC(=O)O)C(=O)O)C(=O)O)CC1` (stereo partly shown) [[^68Ga]-PSMA-1-DOTA, metal not drawn] ({Glu-CO-γGlu}-[X3][Ahx][dE][dE][dE]K(DOTA)-NH2): the “uptake in the salivary glands” value in series [4] (mouse, in vivo) is recorded as “none”. Moreover, in series [5] (mouse, in vivo), the kidney uptake result was “less kidney uptake” and the “uptake into salivary glands” value is on record as “no uptake”.

Take `O=C([O-])CN(CCN(CC(=O)[O-])Cc1cc(CCC(=O)NCCCCCC(=O)NCCCC[C@H](NC(=O)N[C@@H](CCC(=O)O)C(=O)O)C(=O)O)ccc1[O-])Cc1cc(CCC(=O)O)ccc1[O-].[68Ga+3].[OH3+]` [[^68Ga]-PSMA-11]: in series [4] (healthy animals without tumor, equal doses of radioactivity, PET), the “uptake in the salivary glands” value is “significant uptake”. In series [5] (setting [6]), the kidney uptake entry is “significant uptake”, the “uptake in the PC3pip tumor” value is reported as “significant uptake”, the “uptake into lacrimal glands” value is on record as “significant uptake” and the “uptake into salivary glands” value is “significant uptake”.
